Patent US8680241B2 (priority 2009, dated 2014)
“Also recorded” adds a separate entry of the source. Read-outs that look alike come from different tables or passages of the source.

What was measured:
[1] = system: Lewis rats with adjuvant-induced arthritis; settings: rat, in vivo
[2] = system: Balb/C mice with TNBS colitis; format: in vivo, mouse; settings: for TNBS-induced weight loss: Example 15, 8 mg/kg after sensitization and on day 1, day 3, PBS treated animals 15%, FIG. 24
Procedure: Balb/C mice were sensitized with 160 μL of the haptenizing agent TNBS (Sigma-Aldrich, St. Louis, Mo.) at a concentration of 2.5% in 50% ethanol by skin painting. A week later, 120 μl of 1% TNBS in 50% ethanol was administered intrarectally via a 3.5-French catheter. Mice were sacrificed 3 days after intrarectal TNBS administration. Animals were weighed at the time of sensitization, intrarectal administration and every day following such until sacrifice. Clinical assessment was carried out by evaluating weight loss and histopathology of the colon tissue post mortem.
Tissues were fixed in phosphate buffered saline containing 4% formalin and embedded in paraffin. Sections (5 μm) were stained with haematoxylin and eosin. The degree of inflammation was assessed by a blinded pathologist using the following scoring system from 0-4: 0, no signs of inflammation; 1, low level of leucocyte infiltration; 2, moderate level of leucocyte infiltration; 3, high level of leucocyte infiltration, high vascular density, thickening of bowel wall; 4, transmural infiltrations, loss of goblet cells, high vascular density, strong bowel wall thickening, edema.
Twenty Balb/C mice were sensitized via TNBS skin-painting (designated day −7), followed by intrarectal administration of TNBS a week later (designated day 0). The humanized VH2/VK3 antibody (200 μg) was administered at three time points (−6, −2, +1) via i.p. injection to treated animals which were compared with untreated control animals. All the animals were weighed at the time of sensitization, intrarectal administration and every day following such. The animals were sacrificed three days following intrarectal administration (designated +3) following significant weight loss (>5%) in the control group and the colon tissue was removed and sent for histopathological analysis.
Balb/C mice were sensitized via TNBS skin-painting (Day −7), followed by intrarectal administration of TNBS a week later (designated as day 0). The VH2/VK3 variant (8 mg/kg), Rituximab (8 mg/kg) or PBS, were administered following sensitization and on day 1 following intrarectal induction. The mice were weighed at the time of sensitization, intrarectal administration and every day following such. The animals were sacrificed 3 days following intrarectal administration (Day 3) following significant weight loss in the control groups.

Balb/C mice = settings: mouse, in vivo
[3] = molecular target: T1, adenylyl cyclase-associated protein 1 (CAP1) (Homo sapiens, UniProt Q01518); assay: Western blot on over-expressed His-tagged CAP1; format: binding; settings: control His CREB; FIG. 13
T1 construct: made in house; host or cells: E. coli BL21 (modified pET22b vector; cDNA from THP-1 cells)
T1 sequence (Q01518 whole entry): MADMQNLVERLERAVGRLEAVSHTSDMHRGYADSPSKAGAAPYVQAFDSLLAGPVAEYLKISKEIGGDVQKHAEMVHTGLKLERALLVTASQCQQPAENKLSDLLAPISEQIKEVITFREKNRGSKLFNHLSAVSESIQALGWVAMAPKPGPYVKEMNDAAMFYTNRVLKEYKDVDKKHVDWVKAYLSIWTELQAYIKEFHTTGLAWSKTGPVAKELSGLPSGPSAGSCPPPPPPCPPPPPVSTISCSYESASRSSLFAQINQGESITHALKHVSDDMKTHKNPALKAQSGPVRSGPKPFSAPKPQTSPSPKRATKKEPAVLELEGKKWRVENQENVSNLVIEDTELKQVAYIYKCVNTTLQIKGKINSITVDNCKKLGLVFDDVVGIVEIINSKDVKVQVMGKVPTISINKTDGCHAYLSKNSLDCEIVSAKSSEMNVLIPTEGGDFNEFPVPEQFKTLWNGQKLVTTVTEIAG

[4] = 11-day period, FIG. 25
human PBMC = format: cell-based
[5] = system: Lewis rats with adjuvant-induced arthritis; format: in vivo, rat; settings: IP 1 mg/kg days 11 and 15, serum day 19, FIG. 19
Procedure: Evaluation of cytokine levels in cell culture or in the serum of animals was carried out utilizing specific kits from R&D SYSTEMS, Minneapolis Minn. USA (according to the manufacturer's instructions).
The inventors furthermore evaluated the in vivo effects of the humanized anti-peptide-6 antibody on the induction of IL-10 secretion in the serum of animals having established arthritis. Lewis rats were immunized with MT/CFA on day 0. Rats were treated on days 11 and 15 with humanized VH2/VK3 (IP 1 mg/kg), or with PBS for comparison. Severity of arthritis was evaluated by clinical scoring, and animals were sacrificed on day 19 and serum levels of various cytokines were measured by ELISA (R&D systems). Serum of healthy untreated animals served as a control.

[6] = system: PBMC collected from rheumatoid arthritis (RA) patients; format: cell-based, human; settings: 200 μg, 48 hours, two RA patients, vs without antibody; FIG. 21
Procedure: PBMC were collected from two RA patients and incubated for 48 hours with or without 200 μg of the humanized anti-peptide-6 antibody (VH2/VK3). Supernatants were then assayed for secreted IL-10 content.

[7] = system: human macrophages (CD14+ cells); format: cell-based; settings: FITC conjugated, 10 μg; double stained with anti-CD14; FIGS. 12, 16
[8] = system: DBA/1 mice with collagen-induced arthritis; format: in vivo, mouse; settings: single dose i.p. 200 μg upon clinical signs; vs TBS; FIG. 20
Procedure: Nine week old male DBA/1 mice (Harlan Laboratories, Israel) were injected s.c. at the base of the tail with 200 μg collagen type II emulsified in CFA (Difco). Three weeks later mice were boosted s.c. with the same concentration of collagen II. The severity of arthritis was assessed daily by measuring feet diameter of hind and fore paws by caliper by a blinded observer. As controls, the inventors measured 4 mice of about the same age that were not injected with collagen. The mean of the healthy mice served as a “cut-off” measurement. Starting from day 5 after the boost injection, every mouse with a score value above the average of the healthy mice (in one paw or more) was assigned to one of the treatment groups.
The inventors next examined the in vivo effects of the humanized VH2/VK3 anti-peptide-6 antibody in an additional experimental model of arthritis, the Collagen-Induced Arthritis (CIA) model in mice. Male DBA/1 mice were immunized on day 0 with collagen type II emulsified in CFA to induce arthritis, and a boost dose given on day 21.85% of the mice developed CIA within 2.5 weeks after the boost injection. Upon clinical signs of disease, the mice were treated with a single dose of either the humanized VH2/VK3 anti-peptide-6 antibody (i.p. 200 μg) or tris buffered saline (TBS).

Rituximab
pathology findings of joints [1]: marked fibrosis and formation of reactive periosteal bone
severity of AA (arthritis score) ([1]; ip, 5 mg/kg): no effect on AA
TNBS-induced weight loss [2]: 14%

B1: VH2/VK3: humanized anti-peptide-6 IgG1; heavy chain variable region SEQ ID NO: 21, light chain variable region SEQ ID NO: 26 (antibody, V domains shown)
VH: QVTLKESGPALVKPTQTLTLTCSFSGFSLSTSNMGVGWIRQPAGKGLEWLLHILWNDSKYYNPALKSRLTISKDTYKNQVVLTMTNMDPVDTATYYCARMGGYYGNYGYYAMDYWGQGTLVTVSS
VL: QIVLTQSPATLSLSPGERATLSCTASSSVSSSYLHWYQQKPGKAPKLWIYSTSNLASGVPSRFSGSGSGTDYTLTISSLQPEDFATYYCHQYHRSPPTFGQGTKLEIK
modifications: IgG1 constant regions; VH2 amino acid sequence; VK3 amino acid sequence
severity of established AA (arthritis score) ([1]; ip, 2.5 mg/kg): effective in significantly suppressing the severity of established AA
pathological findings (heart, liver, lung, spleen, kidney) (Balb/C mice): no significant pathological findings
inflammatory response in the colon (microscopic disease score, histology) ([2]; Example 14, 200 μg i.p. at days -6, -2, +1, sacrifice day 3, p<0.05 vs control, FIG. 23): Minimal inflammatory response
weight loss in TNBS colitis ([2]; Example 14, 200 μg i.p. at days -6, -2, +1, vs untreated control, FIG. 22): effective in suppressing the weight loss
TNBS-induced weight loss [2]: 3.5%
recognition of His-tagged CAP1 (Western blot) [3]: recognized the His-tagged CAP1 protein specifically
serum half-life ([4]; 500 μg i.p. on day 0): approximately 10 days
serum half-life ([4]; 500 μg s.c. on day 0): approximately 10 days
IL-10 induction in PBMC cultures (human PBMC): best IL-10 induction; also recorded: induced higher IL-10 expression than the other variants
IL-10 secreted from human PBMC (human PBMC): significant increase in IL-10 secreted
serum IL-1 levels ([5]; 1 rat per group): remain negligible in all groups
serum IL-17 levels ([5]; 1 rat per group): remain negligible in all groups
serum TNFα levels ([5]; 1 rat per group): remain negligible in all groups
serum IL-4 levels [5]: remain negligible in all groups
serum IFN-γ levels ([5]; vs PBS): reduction
serum IL-6 levels ([5]; vs PBS): reduction
serum IL-10 levels ([5]; vs PBS): clear induction of IL-10 levels
IL-10 secreted by RA patients' PBMC [6]: robust increase in the amount of IL-10 secreted
binding to CD14 positive cells (FACS) [7]: binds to most of the CD14 positive cells
severity of established CIA (feet diameter) [8]: effective in significantly suppressing the severity of established CIA
